According to article PMC11497058 (2024):

Assays:
[1] = molecular target: T1, Recombinant His‐tagged GRB2 protein (human, UniProt P62993 1-217); test: BLI
[2] = molecular target: T1, Recombinant His‐tagged GRB2 protein; test: BLI; GRB2 preincubated with Rg3

Kd [1]: 74.7 nM | Kd [2]: 14 nM
B1: Recombinant His‐tagged TRKA protein (receptor)
chain: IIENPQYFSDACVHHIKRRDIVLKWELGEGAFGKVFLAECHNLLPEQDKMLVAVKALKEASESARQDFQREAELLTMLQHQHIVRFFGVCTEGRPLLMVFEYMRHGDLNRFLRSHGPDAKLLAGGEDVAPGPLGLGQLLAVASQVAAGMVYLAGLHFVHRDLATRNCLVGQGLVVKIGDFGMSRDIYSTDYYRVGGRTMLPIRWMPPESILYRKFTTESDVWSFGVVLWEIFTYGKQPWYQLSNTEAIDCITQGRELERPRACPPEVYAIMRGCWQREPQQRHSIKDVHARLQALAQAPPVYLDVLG
modifications: biotin (EZ‐Link NHS‐PEG12‐Biotin)
